Experimental data: the supplement of paper PMC10126150
± gives the standard deviation of the averaged measurements.

Test system: ATP
Assay: switch fluorescence ratio, 500 uM ATP over buffer (Cy3 cluster intensity, sum of 5 cycles each) (fold (ratio)); higher = stronger signal-on switching upon ATP binding; sequences stand for … in TCGTCGGCAGCGTCAGATGTGTATAAGAGACAGTTTTTTTTTTTTTTTTTTTTTTTTT…TC
Details: aptamer strand: ATP DNA aptamer (quencher-CACCTGGGGGAGTATTGCGGAGGAAGG + anchor), 100 nM annealed; ATP concentration: 500 uM
In short: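 Clusters carrying Cy3-labelled switching strands on a modified Illumina MiSeq flow-cell were annealed to 100 nM quencher-labelled ATP aptamer and imaged in selection buffer. They were imaged again after 15 min with 500 uM ATP at 22 °C, over five buffer/ATP cycles with NaOH stripping and re-annealing in between. For each cluster, the fluorescence ratio is the summed Cy3 intensity of the target cycles divided by that of the buffer cycles, averaged per switch-domain sequence. Clusters outside 100-1000 RFU were left out.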
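Further: ATP exposure 15 min at 22 °C before imaging.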

| Sequence | switch fluorescence ratio |
| --- | --- |
| TTAGATAGGA | 0.999 ± 0.01 |
| TTAGATCAGC | 0.99 ± 0.03 |
| TTAGATGGGA | 1.005 ± 0.0047 |
| TTAGATTGGG | 0.9736 ± 0.0075 |
| TTAGCATTTA | 1.03 ± 0.013 |
| TTAGCGGTCA | 1.01 ± 0.021 |
| TTAGCGTATG | 1.01 ± 0.031 |
| TTAGCTACCT | 1.11 ± 0.19 |
| TTAGCTATCT | 1.04 ± 0.021 |
| TTAGCTATTA | 0.9858 ± 0.0043 |
| TTAGCTGTTA | 1 ± 0.016 |
| TTAGCTTGG | 0.999 ± 0.061 |
| TTAGGAAGAT | 1.36 ± 0.59 |
| TTAGGAATGT | 1.03 ± 0.047 |
| TTAGGACAGC | 1.02 ± 0.021 |
| TTAGGAGATT | 1.08 ± 0.14 |
| TTAGGAGCGG | 1.04 ± 0.047 |
| TTAGGAGGTG | 1.08 ± 0.018 |
| TTAGGATGA | 1.01 ± 0.027 |
| TTAGGCAGTA | 1.01 ± 0.067 |
| TTAGGCCGAG | 1.04 ± 0.022 |
| TTAGGCGTGT | 1.03 ± 0.031 |
| TTAGGCTGGG | 1.02 ± 0.013 |
| TTAGGCTTGG | 1.06 ± 0.067 |
| TTAGGGAGCG | 0.996 ± 0.035 |

| Sequence | switch fluorescence ratio |
| --- | --- |
| TTAGGGAGTC | 0.992 ± 0.037 |
| TTAGGGCCGA | 1 ± 0.031 |
| TTAGGGCGGG | 1.04 ± 0.039 |
| TTAGGGCTCA | 0.996 ± 0.027 |
| TTAGGGGCAA | 1.04 ± 0.073 |
| TTAGGGGCAC | 0.993 ± 0.018 |
| TTAGGGGGTC | 0.998 ± 0.036 |
| TTAGGGGTCT | 1.03 ± 0.019 |
| TTAGGGTGAA | 1.02 ± 0.032 |
| TTAGGGTGCC | 1.02 ± 0.034 |
| TTAGGGTTTG | 0.995 ± 0.029 |
| TTAGGTAACG | 0.977 ± 0.027 |
| TTAGGTACGG | 1.035 ± 0.01 |
| TTAGGTGAGT | 1.21 ± 0.3 |
| TTAGGTGGAA | 0.976 ± 0.012 |
| TTAGGTGTTT | 1.54 ± 0.69 |
| TTAGGTTCTC | 0.991 ± 0.015 |
| TTAGGTTGCT | 1.1 ± 0.14 |
| TTAGGTTGGC | 1 ± 0.069 |
| TTAGGTTGGG | 1.02 ± 0.056 |
| TTAGGTTGTA | 0.974 ± 0.025 |
| TTAGTAGAAC | 0.993 ± 0.013 |
| TTAGTATATT | 1.03 ± 0.0093 |
| TTAGTCCACT | 1.0047 ± 0.001 |
| TTAGTCCTTG | 0.9914 ± 0.0024 |

| Sequence | switch fluorescence ratio |
| --- | --- |
| TTAGTGAGGT | 1 ± 0.027 |
| TTAGTGGATT | 0.9958 ± 0.0073 |
| TTAGTGGGGG | 0.998 ± 0.029 |
| TTAGTGGTTG | 0.992 ± 0.014 |
| TTAGTGTCGA | 1.02 ± 0.04 |
| TTAGTGTGCT | 1 ± 0.026 |
| TTAGTGTTGT | 0.969 ± 0.028 |
| TTAGTTAAT | 1.02 ± 0.023 |
| TTAGTTAGGT | 1.004 ± 0.0046 |
| TTAGTTATTG | 1 ± 0.087 |
| TTAGTTCGGG | 0.965 ± 0.023 |
| TTAGTTGATA | 1.01 ± 0.018 |
| TTAGTTGCTT | 1.01 ± 0.03 |
| TTAGTTGGCA | 0.981 ± 0.016 |
| TTAGTTGGGT | 1.002 ± 0.008 |
| TTAGTTTGTC | 0.986 ± 0.063 |
| TTAGTTTTAG | 1.008 ± 0.0056 |
| TTAGTTTTGA | 1 ± 0.031 |
| TTAGTTTTTG | 0.98 ± 0.017 |
| TTATAAAGAG | 1.01 ± 0.029 |
| TTATAACTCA | 0.997 ± 0.034 |
| TTATACCAAT | 1.013 ± 0.0022 |
| TTATACGGCG | 1.06 ± 0.0059 |
| TTATACGTTG | 1.02 ± 0.019 |
| TTATACTGAA | 1.05 ± 0.021 |

| Sequence | switch fluorescence ratio |
| --- | --- |
| TTATAGAGTT | 0.9649 ± 0.0032 |
| TTATAGCAGT | 1.06 ± 0.04 |
| TTATAGGGGA | 0.998 ± 0.082 |
| TTATAGGGTA | 1 ± 0.017 |
| TTATAGTATC | 0.948 ± 0.02 |
| TTATAGTTTG | 0.997 ± 0.03 |
| TTATATATAA | 1.01 ± 0.027 |
| TTATATCGGT | 0.971 ± 0.011 |
| TTATATGATT | 0.997 ± 0.036 |
| TTATATTGCG | 0.9885 ± 0.0014 |
| TTATATTTGT | 0.98 ± 0.02 |
| TTATCAGGGG | 1.08 ± 0.12 |
| TTATCATTC | 1.01 ± 0.019 |
| TTATCCAGCT | 1.01 ± 0.012 |
| TTATCCCGAA | 0.991 ± 0.0085 |
| TTATCCTGGT | 0.975 ± 0.011 |
| TTATCCTTCA | 1.27 ± 0.36 |
| TTATCGAGGG | 0.989 ± 0.03 |
| TTATCGATAG | 0.985 ± 0.019 |
| TTATCGATGG | 0.987 ± 0.022 |
| TTATCGATTT | 0.995 ± 0.028 |
| TTATCGCGAC | 1.67 ± 0.82 |
| TTATCGGGAC | 1 ± 0.049 |
| TTATCGGTGT | 0.968 ± 0.038 |
| TTATCGTGCG | 0.9661 ± 0.0079 |

| Sequence | switch fluorescence ratio |
| --- | --- |
| TTATCGTTGG | 1 ± 0.031 |
| TTATCTACGT | 1.07 ± 0.035 |
| TTATCTCTGT | 0.999 ± 0.022 |
| TTATGAATTT | 0.98 ± 0.026 |
| TTATGATTGT | 1.02 ± 0.03 |
| TTATGATTTG | 1.02 ± 0.02 |
| TTATGCCACG | 1.04 ± 0.016 |
| TTATGCGTTT | 1.2 ± 0.28 |
| TTATGCTTGG | 0.976 ± 0.031 |
| TTATGGACCT | 1.331 ± 0.0094 |
| TTATGGGAA | 1.04 ± 0.038 |
| TTATGGGGCG | 1.02 ± 0.035 |
| TTATGGGTCA | 0.983 ± 0.025 |
| TTATGTGGGT | 0.989 ± 0.029 |
| TTATGTTAGG | 0.97498 ± 0.00083 |
| TTATGTTCGA | 1.018 ± 0.005 |
| TTATTAAAAT | 0.997 ± 0.021 |
| TTATTAAATC | 1.008 ± 0.0064 |
| TTATTAAGCT | 1.01 ± 0.027 |
| TTATTACGG | 1 ± 0.027 |
| TTATTAGGGG | 0.983 ± 0.028 |
| TTATTAGTGA | 0.9904 ± 0.006 |
| TTATTATTGG | 0.986 ± 0.013 |
| TTATTCAAAA | 1 ± 0.023 |
| TTATTCGGTT | 0.982 ± 0.031 |

| Sequence | switch fluorescence ratio |
| --- | --- |
| TTATTCGTTG | 0.99 ± 0.025 |
| TTATTCTTGT | 1 ± 0.017 |
| TTATTGGAAT | 1 ± 0.063 |
| TTATTGGGGA | 0.974 ± 0.024 |
| TTATTGGTGT | 1.01 ± 0.024 |
| TTATTGTTAG | 0.9784 ± 0.0027 |
| TTATTTAAAA | 1 ± 0.02 |
| TTATTTAAAG | 1.018 ± 0.0024 |
| TTATTTAATC | 1.01 ± 0.038 |
| TTATTTAGCA | 0.987 ± 0.038 |
| TTATTTCAAG | 1.01 ± 0.064 |
| TTATTTCATT | 0.9966 ± 0.0062 |
| TTATTTCCGG | 1.01 ± 0.028 |
| TTATTTGGA | 0.98 ± 0.04 |
| TTATTTGGAT | 0.9897 ± 0.005 |
| TTATTTGGGA | 0.991 ± 0.043 |
| TTATTTTATT | 0.998 ± 0.021 |
| TTATTTTCAT | 1 ± 0.025 |
| TTATTTTCGA | 0.999 ± 0.021 |
| TTATTTTTA | 0.9699 ± 0.0017 |
| TTATTTTTGA | 1.07 ± 0.096 |
| TTATTTTTTG | 1 ± 0.056 |
| TTCAAAAAGT | 0.991 ± 0.021 |
| TTCAAAATTA | 0.9913 ± 0.0096 |
| TTCAAAGGGT | 1.005 ± 0.0049 |

| Sequence | switch fluorescence ratio |
| --- | --- |
| TTCAACATTT | 1.04 ± 0.011 |
| TTCAACGGGG | 0.9948 ± 0.0039 |
| TTCAACTTTT | 1.01 ± 0.056 |
| TTCAAGGGGA | 1.06 ± 0.13 |
| TTCAAGGTA | 1.01 ± 0.015 |
| TTCAATCATG | 0.988 ± 0.011 |
| TTCAATGGTT | 1.02 ± 0.035 |
| TTCAATTTAG | 0.9954 ± 0.0042 |
| TTCAATTTTT | 0.997 ± 0.021 |
| TTCACAGCCA | 1.09 ± 0.043 |
| TTCACATTTT | 0.9961 ± 0.0026 |
| TTCACCGGGA | 0.9932 ± 0.007 |
| TTCACTAGTG | 1.02 ± 0.035 |
| TTCACTGATG | 1.05 ± 0.017 |
| TTCACTGGGA | 0.9962 ± 0.00098 |
| TTCACTGGTC | 1.019 ± 0.0011 |
| TTCACTTAGC | 1.075 ± 0.0076 |
| TTCAGAAAGG | 1 ± 0.023 |
| TTCAGAAGTC | 1.01 ± 0.056 |
| TTCAGACCGT | 1.016 ± 0.0064 |
| TTCAGAGGGG | 0.997 ± 0.033 |
| TTCAGAGTCA | 0.985 ± 0.042 |
| TTCAGCAATT | 1.57 ± 0.31 |
| TTCAGCGCGC | 1.007 ± 0.0075 |
| TTCAGCGGGT | 0.983 ± 0.025 |

| Sequence | switch fluorescence ratio |
| --- | --- |
| TTCAGCTGGG | 0.998 ± 0.022 |
| TTCAGGATAC | 1.19 ± 0.043 |
| TTCAGGATGT | 1 ± 0.025 |
| TTCAGGATTT | 0.994 ± 0.038 |
| TTCAGGCACG | 0.986 ± 0.049 |
| TTCAGGGAGG | 1 ± 0.033 |
| TTCAGGGGGT | 1.02 ± 0.054 |
| TTCAGGGTTC | 0.966 ± 0.027 |
| TTCAGTGTTT | 0.993 ± 0.023 |
| TTCATAGGGG | 0.988 ± 0.015 |
| TTCATAGGTT | 1.02 ± 0.012 |
| TTCATAGTGA | 0.95 ± 0.028 |
| TTCATATTCA | 1.01 ± 0.023 |
| TTCATCGGCT | 1.34 ± 0.51 |
| TTCATCGGTT | 0.9922 ± 0.0022 |
| TTCATGTCAT | 1.01 ± 0.081 |
| TTCATTCATT | 0.982 ± 0.015 |
| TTCATTGTCG | 0.929 ± 0.062 |
| TTCATTGTTA | 1.03 ± 0.049 |
| TTCATTTTG | 1.01 ± 0.068 |
| TTCCAAACGG | 0.989 ± 0.014 |
| TTCCAAATTG | 0.993 ± 0.017 |
| TTCCAAGATC | 1.18 ± 0.12 |
| TTCCAAGGGT | 1.76 ± 1.5 |
| TTCCAATTTG | 1 ± 0.014 |
